Results as given in patent US11015206B2, “Compositions and methods comprising sequences having hydroxyphenylpyruvate dioxygenase (HPPD) activity” (PIONEER HI-BRED INTERNATIONAL, INC., priority 2014, dated 2021).
Numbering of substitutions follows the chain as printed.

B1: P056028-D-02 (protein)
chain: MGPTPTATAAGAAVAAASAAEQAAFRLVGHRNFVRFNPRSDRFQTLAFHHVELWCADAASAAGRFSFALGVPLAARSDLSTGNSAHASLLLRSGSLSLLFTAPYAHGADAATAALPSFSAAAARRFAADHGLAVRAVALRVADAEDAFRASVAAGARPAFGPVDLGRGFRLAEVELYGDVVLRYVSYPDGGAGEPFLPGFEGVASPGAADYGLSRFDHIVGNVPELAPAAAYMAGFTGFHEFAEFTTEDVGTTESGLNSMALANNSENVLLPLNEPVHGTKRRSQIQTFLDHHGGPGVQHIALASDDVLRTLREMRARSAMGGFEFLPPPLSDYYDGVRKCAGDVLTEAQINECQELGVMVDRDDEGVLLQIFTKPVGDRPTFFLEIIQRIGCMEKDEKGQEYQKGGCGGFGKGNFGQLFKSIEDYEKSLEAKQAAAAATAQGS
modifications: Zea mays variant form created by artificial means.
B2: P056028-E-08 (protein)
chain: B1 chain with G191A, K340R, E356R
modifications: Zea mays variant form created by artificial means.
B3: P056028-E-10 (protein)
chain: B1 chain with L182M, G191A, P206Q, K340R
modifications: Zea mays variant form created by artificial means.
B4: P056028-D-07 (protein)
chain: B1 chain with G191A, P206Q, L385I
modifications: Zea mays variant form created by artificial means.
B5: P056028-E-09 (protein)
chain: B1 chain with P206Q
modifications: Zea mays variant form created by artificial means.
B6: P056028-E-11 (protein)
chain: B1 chain with P206S, K340R
modifications: Zea mays variant form created by artificial means.
B7: P056028-D-05 (protein)
chain: B1 chain with G191A, P206S, E356R, G417S
modifications: Zea mays variant form created by artificial means.
B8: P056028-E-03 (protein)
chain: B1 chain with T45A, G191A, K340R, G417S
modifications: Zea mays variant form created by artificial means.
B9: P056028-D-06 (protein)
chain: B1 chain with L182M, G191A, P206Q, Y211L, S214N, K340R, I387L, G417S
modifications: Zea mays variant form created by artificial means.
B10: P056028-E-06 (protein)
chain: B1 chain with G191A, E244K, M394K
modifications: Zea mays variant form created by artificial means.
B11: P056028-E-05 (protein)
chain: B1 chain with P206S, K340R, G417Q
modifications: Zea mays variant form created by artificial means.
B12: P056028-D-09 (protein)
chain: B1 chain with K340R, E356K
modifications: Zea mays variant form created by artificial means.
B13: P056028-D-04 (protein)
chain: B1 chain with L182M, G191A, Y211L, S214N, K340R, G417S
modifications: Zea mays variant form created by artificial means.
B14: P056028-E-07 (protein)
chain: B1 chain with G191A, Y211L, K340R, G417Q, Q434R
modifications: Zea mays variant form created by artificial means.

Columns and labels:
Assay type in all cases: biochemical, Z. mays
[1] = system: 4-hydroxyphenylpyruvate dioxygenase (HPPD); experiment: Insensitivity parameter (ON × OFF) and trait fitness (ON × OFF × kcat/KM or × kcat); set-up: key to ON × OFF / Insensitivity, mesotrione, ON × OFF / Insensitivity, tembotrione, ON × OFF / Insensitivity, topramezone, ON × OFF / Insensitivity, sulcotrione, ON × OFF / Insensitivity, isoxaflutole (DKN), ON × OFF: insensitivity = ON rate ratio × OFF rate ratio (surrogate for KD)
Procedure, shortened: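 Trait fitness combines catalysis and insensitivity as kcat/KM × ON rate ratio × OFF rate ratio. The insensitivity parameter is the product of ON and OFF rate ratios, used in place of KD because the ON rate ratio is inverse.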

[2] = system: 4-hydroxyphenylpyruvate dioxygenase (HPPD); experiment: OFF rate ratio: release of inhibitor from pre-formed enzyme-inhibitor complex; settings: Table 7; tembotrione; combinatorial variants
Procedure, shortened: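 Inhibitor release from pre-formed complex (enzyme 7.2 μM, inhibitor 8 μM, 1 h RT) tracked as accelerating HPPD activity at 320 nm over 12 min, coupled via 50 nM HGD with 100 μM HPP at pH 7. OFF rate ratio: steady-state velocity relative to uninhibited initial velocity.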

[3] = system: 4-hydroxyphenylpyruvate dioxygenase (HPPD); experiment: ON rate ratio: HPPD reaction rate with vs without inhibitor in the 70 to 90 second interval; settings: Table 7; tembotrione; combinatorial variants
Procedure, shortened: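 Indicator of inhibitor on-rate: reaction velocity in the 70 to 90 second window with 4 μM inhibitor divided by that without. Reactions contained 100 μM HPP and 60 or 120 nM HPPD; slower binding gives a larger ratio.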

[4] = system: 4-hydroxyphenylpyruvate dioxygenase (HPPD); experiment: Estimate of kcat from initial rate at saturating hydroxyphenylpyruvate without inhibitor (ON rate ratio assay)
Procedure, shortened: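 kcat was estimated from the initial reaction rate with known enzyme level (60 or 120 nM HPPD). Hydroxyphenylpyruvate was at a saturating 100 μM, with no inhibitor present.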

[5] = Table 7, tembotrione, combinatorial variants
[6] = Table 7, combinatorial variants

Row | Molecule | ON × OFF ([1]; Megatable 3, shuffled variants) | ON × OFF × kcat ([1]; Megatable 3, shuffled variants) | ON × OFF [1, 5] | ON × OFF × kcat [1, 5] | OFF rate ratio [2] | ON rate ratio [3] | kcat ([4]; Megatable 3, shuffled variants) [s⁻¹] | kcat [4, 6] [s⁻¹]
1 | B1 | 0.218 | 5.31 | 0.218 | 5.31 | 0.299 | 0.730 | 0.405 | 0.405
2 | B2 | 0.281 | 3.55 | 0.281 | 3.55 | 0.410 | 0.685 | 0.21 | 0.21
3 | B3 | 0.238 | 2.73 | 0.238 | 2.73 | 0.339 | 0.702 | 0.192 | 0.192
4 | B4 | 0.286 | 2.60 | 0.286 | 2.60 | 0.370 | 0.775 | 0.152 | 0.152
5 | B5 | 0.208 | 3.10 | 0.208 | 3.10 | 0.308 | 0.676 | 0.248 | 0.248
6 | B6 | 0.219 | 3.70 | 0.219 | 3.70 | 0.304 | 0.721 | 0.282 | 0.282
7 | B7 | 0.371 | 4.66 | 0.371 | 4.66 | 0.508 | 0.730 | 0.21 | 0.21
8 | B8 | 0.303 | 5.10 | 0.303 | 5.10 | 0.412 | 0.735 | 0.282 | 0.282
9 | B9 | 0.310 | 3.07 | 0.310 | 3.07 | 0.424 | 0.731 | 0.165 | 0.165
10 | B10 | 0.064 | 1.76 | 0.064 | 1.76 | 0.186 | 0.346 | 0.47 | 0.47
11 | B11 | 0.229 | 3.48 | 0.229 | 3.48 | 0.325 | 0.704 | 0.253 | 0.253
12 | B12 | 0.242 | 3.16 | 0.242 | 3.16 | 0.371 | 0.652 | 0.217 | 0.217
13 | B13 | 0.137 | 1.71 | 0.137 | 1.71 | 0.197 | 0.696 | 0.207 | 0.207
14 | B14 | 0.153 | 3.08 | 0.153 | 3.08 | 0.262 | 0.585 | 0.343 | 0.343
